We go through two proteins from article PMC9738585, “Unveiling the Metal-Dependent Aggregation Properties of the C-terminal Region of Amyloidogenic Intrinsically Disordered Protein Isoforms DPF3b and DPF3a” (International Journal of Molecular Sciences, 2022).

The series concerns the molecule itself. Description: thioflavin T fluorescence; purified C-TER (~10 µM) incubated in TBS (50 mM Tris-HCl pH 8.0, 150 mM NaCl) at ~20 °C for 96 to 144 h; 10 µM ThT, excitation 440 nm, emission 485 nm; self-assembly into amyloid fibrils; also at ~5 µM with 100 µM Cu2+, Mg2+, Ni2+ or Zn2+.

B1: C-terminal region of DPF3a (C-TERa) (domain or fragment, human, UniProt Q92784-2 200-357, looked up)
chain: CDICGKRYKNRPGLSYHYAHTHLASEEGDEAQDQETRSPPNHRNENHRPQKGPDGTVIPNNYCDFCLGGSNMNKKSGRPEELVSCADCGRSAHLGGEGRKEKEAAAAARTTEDLFGSTSESDTSTFHGFDEDDLEEPRSCRGRRSGRGSPTADKKGSC
notes: Double-PHD fingers 3 isoform DPF3a (357 amino acids), human, Uniprot Q92784-2, residues 200-357 (C2H2, truncated PHD-1/2 and disordered C-terminal domain); also called DPF3a C-terminus; source: E. coli BL21 Rosetta (DE3), purified (GSTrap FF, on-column TEV cleavage); not shown: GST, N-terminal, cleaved
Take B1: the binding result was “binds”.

B2: C-terminal region of DPF3b (C-TERb) (domain or fragment, human, UniProt Q92784-1 200-378, looked up)
chain: CDICGKRYKNRPGLSYHYAHTHLASEEGDEAQDQETRSPPNHRNENHRPQKGPDGTVIPNNYCDFCLGGSNMNKKSGRPEELVSCADCGRSGHPTCLQFTLNMTEAVKTYKWQCIECKSCILCGTSENDDQLLFCDDCDRGYHMYCLNPPVAEPPEGSWSCHLCWELLKEKASAFGCQA
notes: Double-PHD fingers 3 isoform DPF3b (378 amino acids), human, Uniprot Q92784-1, residues 200-378 (C2H2, PHD-1 and PHD-2 zinc fingers); also called DPF3b C-terminus; source: E. coli BL21 Rosetta (DE3), purified (GSTrap FF, on-column TEV cleavage); not shown: GST, N-terminal, cleaved
Consider B2, for which the binding result was “binds”.
